For assay [1], the target named is soluble human insulin mini-receptor (mIR) (human) (UniProt P06213). The assay can be described thus: FP competition vs FITC-RP9, mIR.
In assay [2] the target is Insulin receptor prepared according to Bass et al., 1996: soluble human insulin receptor-immunoglobulin heavy chain chimera (human) (UniProt P06213). Nature of the assay: phage ELISA vs milk. For orientation: In an ELISA, binding on a coated surface is turned into a signal by an enzyme label.
Assay [3] has the same target. The assay can be described thus: phage ELISA, vs IGF-1R.
Assay [4] concerns the target Soluble IGF-1R (UniProt P08069). Nature of the assay: phage ELISA; ratio over background for IGF-1R divided by that for IR.
For assay [5] the target is unchanged.
The target in assay [6] is soluble human insulin receptor-immunoglobulin heavy chain chimera (sIR-Fc) (human), P06213. Nature of the assay: fluorescence polarization competition with FITC-RP9 for sIR-Fc. The following applies: remark: other sources report otherwise. On the technique in general: Fluorescence polarisation rises when a labelled molecule tumbles more slowly, as on binding a larger partner.

Assay [7] deals with T1, Soluble IGF-1R (R&D Systems, Cat. # 391-GR/CF); recombinant human IGF-1R (human), P08069. The assay can be described thus: phage ELISA, vs IR.
The target of assay [8] is T2, Insulin receptor prepared according to Bass et al., 1996: soluble human insulin receptor-immunoglobulin heavy chain chimera (human), P06213. The assay can be described thus: phage ELISA vs milk.
For assay [9], the target named is T1, Soluble IGF-1R (R&D Systems, Cat. # …). The assay can be described thus: phage ELISA vs milk.
The target of assay [10] is T2, Insulin receptor prepared according to …. The assay can be described thus: phage ELISA, vs IGF-1R.

No end group written: not given here.

The values below come from patent US20030236190A1.

In assay [1], FHENFYDWFVQRVSKK [H2C] had an IC50 of 770 nM.
With RGAVAGFHDQFYDWFDRQVSRVHKFG [H2CA-4-E9-IGFR], the Ratio over Background in [2] is 1.9 fold. Moreover, in assay [3], the IR/IGF-1R Comparison worked out at 0.3.

B1: 26L-3-G5-IR (peptide)
peptide: AETSAQVGWQRLWSVWPGDHWSTLDPFYHKLSELLRESGA
modifications: not fully specified (residue 27, N-terminus, C-terminus); printed as AETSAQVGWQRLWSVWPGDHWSTLDP9YHKLSELLRESGA
For the molecule B1, the IGF-1R/IR ratio comparison in the assay with Soluble IGF-1R [4] came out at 1.4. Further, the ratio over background, IGF-1R (ratio over background) in the assay with Soluble IGF-1R [5] was determined as 2.
Turning to YRGMLVLGRISGGAGKAASERPARIGQKVSAVNFYDWFV [A6L-0-H3-IR], the Ratio over Background in assay [2] was 2 fold. In assay [3], this molecule returned an IR/IGF-1R Comparison of 0.1.
CWARPCGDAANFYDWFVQQAS [C1] displayed an IC50 in assay [6] of 52 nM.

B2: 20E2B-2-B11-IGFR (peptide)
peptide: VVTPVNFYRALEALVRGXRLG
modifications: not fully specified; printed as VVTPVNFYRALEALVRG.RLG; X: residue not identified in the source
For B2, the IGF-1R/IR Comparison in assay [7] worked out at 9.4. Besides, the Ratio over Background is 1.1 fold in assay [8] and 10.6 fold in [9]. In addition, the IR/IGF-1R Comparison in [10] came out at 0.1.
For CCTTEMVVMDARDDPFYHKLSELVTGG [B6Hα-1-B5-IR], the Ratio over Background in [2] is 1 fold. This molecule yielded an IR/IGF-1R Comparison in assay [3] of 0.

In general, IC50 refers to the concentration that gives 50% inhibition. The low end stands for inhibition by little substance, the high end for a need for much substance.
